Measurements: patent publication US20240010722A1 (published 2024)

T1: murine MAdCAM on cells (mouse, UniProt Q61826 22-405)
T1 construct: whole, on cells; also called CHO cells over-expressing murine MAdCAM; MAdCAM-1 expressing structures of mouse mesenteric lymph node
T1 sequence (looked up): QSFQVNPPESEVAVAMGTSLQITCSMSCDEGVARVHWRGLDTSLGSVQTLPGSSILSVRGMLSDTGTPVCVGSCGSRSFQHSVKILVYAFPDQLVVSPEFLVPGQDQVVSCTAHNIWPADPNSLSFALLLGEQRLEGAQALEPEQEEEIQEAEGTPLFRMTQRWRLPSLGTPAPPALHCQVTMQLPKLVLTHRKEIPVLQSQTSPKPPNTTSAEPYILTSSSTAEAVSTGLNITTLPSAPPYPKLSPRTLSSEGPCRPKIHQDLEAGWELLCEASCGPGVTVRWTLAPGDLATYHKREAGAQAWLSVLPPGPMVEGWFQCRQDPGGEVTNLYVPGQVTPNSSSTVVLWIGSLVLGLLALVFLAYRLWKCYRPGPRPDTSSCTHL

T2: human MAdCAM (human, UniProt Q13477 19-317, limits assumed)
T2 construct: also called huMAdCAM; human MAdCAM-1
T2 sequence (looked up): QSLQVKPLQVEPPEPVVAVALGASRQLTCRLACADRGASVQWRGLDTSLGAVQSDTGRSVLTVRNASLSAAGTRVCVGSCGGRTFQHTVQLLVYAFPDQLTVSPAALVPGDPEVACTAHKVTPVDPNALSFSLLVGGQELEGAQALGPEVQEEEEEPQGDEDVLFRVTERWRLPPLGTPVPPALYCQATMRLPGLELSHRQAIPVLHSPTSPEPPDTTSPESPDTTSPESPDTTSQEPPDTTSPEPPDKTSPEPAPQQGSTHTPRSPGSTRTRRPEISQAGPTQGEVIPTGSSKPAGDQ


Columns and labels:
murine MAdCAM on cells = molecular target: T1, murine MAdCAM on cells; experiment: confocal staining of mouse mesenteric lymph node sections, 1 and 10 nM
Method: Fresh frozen mesenteric lymph node replicates from a 12-week BALB/c mouse were sectioned at 5 um, fixed with acetone, blocked with blockaid buffer solution for ten minutes room temperature and incubated with 1 and 10 nM titrations of test articles overnight at 4-degree Celsius. Tissues were then stained with anti-mouse MAdCAM and anti-human IgG Fc for two hours room temperature, DAPI counterstained and mounted and imaged with confocal microscopy. Clones including optimized MAdCAM (PMAB58 and PMAB18) co-localized with MAdCAM-1 expressing structures similarly to the parental clones (PMAB1 and PMAB57).

Insulin = experiment: polyreactivity ELISA on insulin coat, 100 nM
Method: Non-specific DNA and Insulin binding is predictive of poor pharmacokinetics (PK). An immunosorbent plate was coated with dsDNA at a concentration of 1 μg/mL or Insulin at 5 μg/mL in PBS pH 7.4, 75 ul/well, and incubated overnight at 4° C. Wells were washed with PBS pH 7.4 containing 0.05% Tween-20 (wash buffer) three times, and then blocked with 200 ul/well 1% BSA in PBS pH 7.4 (block buffer) for two hours at room temperature. After three washes with wash buffer, TAs and controls Lenzilumab and Elotuzumab were diluted to 100 nM in PBS containing 1% BSA and 0.05% Tween-20 (assay buffer). The diluted material was added to the DNA/insulin coated plate at 75 ul/well for 1 hour at room temperature. After three washes with wash buffer, a donkey anti-human FcY HRP conjugated polyclonal antibody, diluted to 1:5000 in assay buffer, was added to the plate at 75 ul/well for 1 hr at room temperature. After three washes with wash buffer and three washes with wash buffer (with no tween-20), the assay was developed with TMB, and stopped with 1N HCL. OD 450 nm was measured. The experiment included appropriate controls for non-specific binding of test articles to the plate/block in the absence of DNA or insulin.

human MAdCAM = molecular target: T2, human MAdCAM; experiment: BLI (Octet), binder on anti-human Fc tips

Insulin, sequence (P01308 25-54, chain 1 of 2): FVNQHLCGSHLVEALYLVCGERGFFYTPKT
Insulin, sequence (P01308 90-110, chain 2 of 2): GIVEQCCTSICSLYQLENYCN

binding result (murine MAdCAM on cells) | Insulin polyreactivity score (Insulin) | Kd (human MAdCAM) [nM] | koff (human MAdCAM) [s⁻¹] | kon (human MAdCAM) [M⁻¹ s⁻¹] | binding result (human MAdCAM) | Binder
– | 2.46 | 8360 | 0.543 | 64800 | – | MIAB153 (antibody, V domains shown, tested with human Fc) VH: EVQLLESGGGLVQPGGSLRLSCAASGFTFSDFWMHWVRQAPGKGLEWISYISGDSGYTNYADSVKGRFTISRDNSKNTLYLQMNSLRAEDTAVYYCARDRPYYYYMDVWGKGTTVTVSS VL: DIQMTQSPSSLSASVGDRVTITCRASQSVSSSLNWYQQKPGKAPKLLIYAASSLQSGVPSRFSGSGSGTDFTLTISSLQPEDFATYYCQQYKSYPVTFGQGTKVEIK
– | 3.63 | 2690 | 0.314 | 117000 | – | MIAB148 (antibody, V domains shown, tested with human Fc) VH: EVQLLESGGGLVQPGGSLRLSCAASGFTFSDFWMHWVRQAPGKGLEWISYISGDSGYTNYADSVKGRFTISRDNSKNTLYLQMNSLRAEDTAVYYCARDRPYYYYMDVWGKGTTVTVSS VL: DIQMTQSPSSLSASVGDRVTITCRASQSVSRSLNWYQQKPGKAPKLLIYAASSLQSGVPSRFSGSGSGTDFTLTISSLQPEDFATYYCQQYKSYPVTFGQGTKVEIK
– | 3.53 | 68.8 | 0.0259 | 376000 | – | MIAB149 (antibody, V domains shown, tested with human Fc; also called MIAB149-001) VH: EVQLLESGGGLVQPGGSLRLSCAASGFTFSDFWMHWVRQAPGKGLEWISYISGDSGYTNYADSVKGRFTISRDNSKNTLYLQMNSLRAEDTAVYYCARDRPYYYYMDVWGKGTTVTVSS VL: DIQMTQSPSSLSASVGDRVTITCRASQSISSSLAWYQQKPGKAPKLLIYAASSLQSGVPSRFSGSGSGTDFTLTISSLQPEDFATYYCQQYKSYPVTFGQGTKVEIK
– | 3.81 | – | – | – | no binding (tested: 200 nM) | MIAB147 (antibody, V domains shown, tested with human Fc; also called MIAB147-001) VH: EVQLLESGGGLVQPGGSLRLSCAASGFTFSDFWMHWVRQAPGKGLEWISYISGDSGYTNYADSVKGRFTISRDNSKNTLYLQMNSLRAEDTAVYYCARDRPYYYYMDVWGKGTTVTVSS VL: DIQMTQSPSSLSASVGDRVTITCRASQSVSRYLAWYQQKPGKAPKLLIYAASSLQSGVPSRFSGSGSGTDFTLTISSLQPEDFATYYCQQYKSYPVTFGQGTKVEIK

More lines, now with the values behind:

Binder | binding result (murine MAdCAM on cells) | Insulin polyreactivity score (Insulin) | Kd (human MAdCAM) [nM] | koff (human MAdCAM) [s⁻¹] | kon (human MAdCAM) [M⁻¹ s⁻¹] | binding result (human MAdCAM)
PMAB1 (bispecific antibody, human IgG1, kappa, also called parental PMAB1) heavy: EVQLLESGGGLVQPGGSLRLSCAASGFTFSNSDMSWVRQAPGKGLEWVSGITISGGSTYYADSVKGRFTISRDNSKNTLYLQMNSLRAEDTAVYYCARGRGGSGWLDYWGQGTLVTVSSASTKGPSVFPLAPSSKSTSGGTAALGCLVKDYFPEPVTVSWNSGALTSGVHTFPAVLQSSGLYSLSSVVTVPSSSLGTQTYICNVNHKPSNTKVDKKVEPKSCDKTHTCPPCPAPEAAGAPSVFLFPPKPKDTLMISRTPEVTCVVVDVSHEDPEVKFNWYVDGVEVHNAKTKPREEQYNSTYRVVSVLTVLHQDWLNGKEYKCKVSNKALPAPIEKTISKAKGQPREPQVYTLPPSREEMTKNQVSLTCLVKGFYPSDIAVEWESNGQPENNYKTTPPVLDSDGSFFLYSKLTVDKSRWQQGNVFSCSVMHEALHNHYTQKSLSLSPGGGGGSGGGGSGGGGSEVQLLESGGGLVQPGGSLRLSCAASGFTFSDFWMHWVRQAPGKGLEWISYISGDSGYTNYADSVKGRFTISRDNSKNTLYLQMNSLRAEDTAVYYCARDRPYYYYMDVWGKGTTVTVSSGGGGSGGGGSGGGGSGGGGSDIQMTQSPSSLSASVGDRVTITCRASQSVSRSLAWYQQKPGKAPKLLIYAASSLQSGVPSRFSGSGSGTDFTLTISSLQPEDFATYYCQQYKSYPVTFGQGTKVEIK light: not shown | binds | – | – | – | – | –
MIAB133 (antibody, V domains shown, tested with human Fc; also called MIAB133-001) VH: EVQLLESGGGLVQPGGSLRLSCAASGFTFSSFWMHWVRQAPGKGLEWISYISGDSGYTNYADSVKGRFTISRDNSKNTLYLQMNSLRAEDTAVYYCARDRPYYYYMDVWGKGTTVTVSS VL: DIQMTQSPSSLSASVGDRVTITCRASQSVSRSLAWYQQKPGKAPKLLIYAASSLQSGVPSRFSGSGSGTDFTLTISSLQPEDFATYYCQQYKSYPVTFGQGTKVEIK | – | 13.2 | 20 | 0.0113 | – | –
MIAB137 (antibody, V domains shown, tested with human Fc) VH: EVQLLESGGGLVQPGGSLRLSCAASGFTFSDFWMHWVRQAPGKGLEWVSAISGSGGSTYYADSVKGRFTISRDNSKNTLYLQMNSLRAEDTAVYYCARDRPYYYYMDVWGKGTTVTVSS VL: DIQMTQSPSSLSASVGDRVTITCRASQSVSRSLAWYQQKPGKAPKLLIYAASSLQSGVPSRFSGSGSGTDFTLTISSLQPEDFATYYCQQYKSYPVTFGQGTKVEIK | – | 67.3 | 203 | 0.082 | 404000 | –
MIAB136 (antibody, V domains shown, tested with human Fc) VH: EVQLLESGGGLVQPGGSLRLSCAASGFTFSSYAMSWVRQAPGKGLEWISYISGDSGYTNYADSVKGRFTISRDNSKNTLYLQMNSLRAEDTAVYYCARDRPYYYYMDVWGKGTTVTVSS VL: DIQMTQSPSSLSASVGDRVTITCRASQSVSRSLAWYQQKPGKAPKLLIYAASSLQSGVPSRFSGSGSGTDFTLTISSLQPEDFATYYCQQYKSYPVTFGQGTKVEIK | – | 75.4 | – | – | – | no binding (tested: 150 nM)
MIAB145 (antibody, V domains shown, tested with human Fc; also called MIAB145-001) VH: EVQLLESGGGLVQPGGSLRLSCAASGFTFSDFWMHWVRQAPGKGLEWISYISGDSGYTNYADSVKGRFTISRDNSKNTLYLQMNSLRAEDTAVYYCARDRPYYYYMDVWGKGTTVTVSS VL: DIQMTQSPSSLSASVGDRVTITCRASQSISRSLAWYQQKPGKAPKLLIYAASSLQSGVPSRFSGSGSGTDFTLTISSLQPEDFATYYCQQYKSYPVTFGQGTKVEIK | – | 4.58 | 22.2 | 0.00897 | 405000 | –
MIAB170 (antibody, V domains shown, tested with human Fc) VH: EVQLLESGGGLVQPGGSLRLSCAASGFTFSDFWMHWVRQAPGKGLEWISYISGDSGYTNYADSVKGRFTISRDNSKNTLYLQMNSLRAEDTAVYYCARDRPYYYWMDVWGKGTTVTVSS VL: DIQMTQSPSSLSASVGDRVTITCRASQSVSRSLAWYQQKPGKAPKLLIYAASSLQSGVPSRFSGSGSGTDFTLTISSLQPEDFATYYCQQYKSYPVTFGQGTKVEIK | – | 4.73 | – | – | – | no binding (tested: 1 µM)
MIAB146 (antibody, V domains shown, tested with human Fc; also called MIAB146-001) VH: EVQLLESGGGLVQPGGSLRLSCAASGFTFSDFWMHWVRQAPGKGLEWISYISGDSGYTNYADSVKGRFTISRDNSKNTLYLQMNSLRAEDTAVYYCARDRPYYYYMDVWGKGTTVTVSS VL: DIQMTQSPSSLSASVGDRVTITCRASQSVSSSLAWYQQKPGKAPKLLIYAASSLQSGVPSRFSGSGSGTDFTLTISSLQPEDFATYYCQQYKSYPVTFGQGTKVEIK | – | 2.61 | 43.8 | 0.0197 | 449000 | –
MIAB151 (antibody, V domains shown, tested with human Fc) VH: EVQLLESGGGLVQPGGSLRLSCAASGFTFSDFWMHWVRQAPGKGLEWISYISGDSGYTNYADSVKGRFTISRDNSKNTLYLQMNSLRAEDTAVYYCARDRPYYYYMDVWGKGTTVTVSS VL: DIQMTQSPSSLSASVGDRVTITCRASQSISRSLNWYQQKPGKAPKLLIYAASSLQSGVPSRFSGSGSGTDFTLTISSLQPEDFATYYCQQYKSYPVTFGQGTKVEIK | – | 3.63 | 2960 | 0.292 | 98700 | –
